Assay results from US20070244048A1 (published 2007).
No end group written: not given here.

Tests used:
human NMUR2 = target: T1, human NMUR2 (human, UniProt Q9GZQ4 1-415); assay: 125I-hNMU-25 displacement, cell membranes
T1 construct: whole, on cells; Stably expressed in cells (FLIPR); also called hNMUR2; human R2

rat NMUR1-TTG = target: T2, rat NMUR1-TTG (rat, UniProt Q9JJI5 1-425); assay: 125I-hNMU-25 displacement, cell membranes
T2 construct: whole, on cells; Cell line with the start codon (TTG) as predicted from genomic databases; also called rat R1-TTG
T2 sequence (looked up): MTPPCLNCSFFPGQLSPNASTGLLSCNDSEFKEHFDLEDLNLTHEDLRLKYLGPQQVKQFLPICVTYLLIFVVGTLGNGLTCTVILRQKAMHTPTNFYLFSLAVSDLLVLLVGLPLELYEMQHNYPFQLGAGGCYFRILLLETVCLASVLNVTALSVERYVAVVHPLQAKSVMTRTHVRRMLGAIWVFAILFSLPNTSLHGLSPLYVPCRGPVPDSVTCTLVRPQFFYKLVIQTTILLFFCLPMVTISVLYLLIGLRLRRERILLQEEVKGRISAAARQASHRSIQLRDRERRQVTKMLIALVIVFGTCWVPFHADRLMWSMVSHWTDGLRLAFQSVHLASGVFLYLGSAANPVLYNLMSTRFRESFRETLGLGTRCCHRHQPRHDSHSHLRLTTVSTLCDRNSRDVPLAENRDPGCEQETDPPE

T1 sequence (Q9GZQ4 whole entry): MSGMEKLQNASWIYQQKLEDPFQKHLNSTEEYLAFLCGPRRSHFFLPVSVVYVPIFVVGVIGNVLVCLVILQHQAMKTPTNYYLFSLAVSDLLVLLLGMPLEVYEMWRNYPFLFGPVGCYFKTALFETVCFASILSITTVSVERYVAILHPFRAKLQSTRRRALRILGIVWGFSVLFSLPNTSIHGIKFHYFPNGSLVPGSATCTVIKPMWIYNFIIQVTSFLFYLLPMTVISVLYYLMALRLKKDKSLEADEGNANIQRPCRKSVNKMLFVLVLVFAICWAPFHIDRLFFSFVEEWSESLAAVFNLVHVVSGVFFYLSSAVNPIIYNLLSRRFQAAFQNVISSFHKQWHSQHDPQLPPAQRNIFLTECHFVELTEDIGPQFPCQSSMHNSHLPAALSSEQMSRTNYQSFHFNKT

B1: human NMU-25 (peptide)
peptide: FRVDEEFQSPFASQSRGYFLFRPRN-NH2
notes: also called hNMU-25; native hNMU
B1 was tested, and the IC50 (human NMUR2) was 0.056 nM and the IC50 (rat NMUR1-TTG) was 0.2 nM.
